Patent publication US20240209100A1 (DIAGONAL THERAPEUTICS, published 2024)

B1: DGL076 (bispecific antibody, V domains shown)
V domain 1: QVQLQESGGGLVQPGGSLRLSCAASGNIFRATGMGWYRQAPGKWRELVARISSTGSPNYVDFVKGRFTISRDNAKNTLYLQMNSLKPDDTAVYYCNTVGTTLFAWGQGTQVTVSS
V domain 2: EVQLVESGGGVAQAGGSLRLSCAASITSFSLNTMGYYRQLPGKQRELVAVESSSGITNYADSVKGRFTISRDGAKNTVFLQMNSLTPEDTAVYYCGGKLFGRDFWGQGTQVTVSS
B2: DGL060 (bispecific antibody, V domains shown)
V domain 1: EVQLVESGGGLVQPGGSLRLSCAASGSIFSINAMGWYRQAPGKQREVVATSTGGGMTNYADSVKGRFTISRDNAKNTVYLQMNSLKPEDTAVYYCNADKDPFFPGDYWGQGTQVTVSS
V domain 2: QVQLQESGGGLVQPGGSLGLSCAASGIKISVNSMAWYRQAPGERREMVAVISSGGSAVYADSVKGRFTISRDNAKNMVYLQMNSLKPEDTAVYYCHPGSAAYRDYWGQGTQVTVSS
B3: DGL063 (bispecific antibody, V domains shown)
V domain 1: QLQLVESGGGLVQPGGSLRLSCAASGKIFSINIMDWYRQAPGKERELVARISPGDIITYANDVKGRFTISRNNAKNTVYLQMNSLKPEDTAVYYCRWRQGAGDYWGRGTQVTVSS
V domain 2: QVQLQESGGGLVQPGGSLGLSCAASGIKISVNSMAWYRQAPGERREMVAVISSGGSAVYADSVKGRFTISRDNAKNMVYLQMNSLKPEDTAVYYCHPGSAAYRDYWGQGTQVTVSS
B4: DGL075 (bispecific antibody, V domains shown)
V domain 1: EVQLVESGGGLVQPGGSLRLSCAASGSIFSINAMGWYRQAPGKQREVVATSTGGGMTNYADSVKGRFTISRDNAKNTVYLQMNSLKPEDTAVYYCNADKDPFFPGDYWGQGTQVTVSS
V domain 2: EVQLVESGGGVAQAGGSLRLSCAASITSFSLNTMGYYRQLPGKQRELVAVESSSGITNYADSVKGRFTISRDGAKNTVFLQMNSLTPEDTAVYYCGGKLFGRDFWGQGTQVTVSS
B5: DGL061 (bispecific antibody, V domains shown)
V domain 1: QVQLQESGGGLVQPGGSLRLSCAASGNIFRATGMGWYRQAPGKWRELVARISSTGSPNYVDFVKGRFTISRDNAKNTLYLQMNSLKPDDTAVYYCNTVGTTLFAWGQGTQVTVSS
V domain 2: QVQLQESGGGLVQPGGSLGLSCAASGIKISVNSMAWYRQAPGERREMVAVISSGGSAVYADSVKGRFTISRDNAKNMVYLQMNSLKPEDTAVYYCHPGSAAYRDYWGQGTQVTVSS
B6: DGL068 (bispecific antibody, V domains shown)
V domain 1: EVQLVESGGGLVQPGGSLRLSCAASGSIFSINAMGWYRQAPGKQREVVATSTGGGMTNYADSVKGRFTISRDNAKNTVYLQMNSLKPEDTAVYYCNADKDPFFPGDYWGQGTQVTVSS
V domain 2: QVQLVESGGGLVQAGGSLRLSCVASGTFFQIHVMGWYRQAPGKQRELVAFIINNGGTRYADSVKGRFTISRDYAKNTVYLQMNSLKPEDTAVYYCNTEGTYRGRYSTDNWGQGTQVTVSS
B7: DGL062 (bispecific antibody, V domains shown)
V domain 1: QVQLQESGGGLVQPGGSLRLSCAASGSIFSTKGLGWYRQAPGEQRELVAGISSAGWIFYTQSVKGRFTMSRDNAKNTVYLQMNSLKPEDTAVYYCNSAQSGVPLRSWGQGTQVTVAS
V domain 2: QVQLQESGGGLVQPGGSLGLSCAASGIKISVNSMAWYRQAPGERREMVAVISSGGSAVYADSVKGRFTISRDNAKNMVYLQMNSLKPEDTAVYYCHPGSAAYRDYWGQGTQVTVSS
B8: DGL052 (bispecific antibody, V domains shown)
V domain 1: QVQLQESGGGLVQPGGSLRLSCAASGFIFSNWYMRWVRQAPGEGLEWVSSINSGGDDTDYADSVKGRFTISRDNAKGTLYLQMHSLKPEDTALYYCERGADRVRGQGTQVTVSS
V domain 2: QVQLVESGGDLVLPGGSLKLSCEASGSISSRNSMAWYRRAPGKQRELVAAISSISSGGRTDYADFVKGRFTIFRDTAKNMVYLQMNNLKPEDTAVYDCDDPIRVASLAYDDWGQGTQVTVSS
B9: DGL323 (bispecific antibody, V domains shown)
V domain 1: QVQLQESGGGLVQPGGSLRLSCAASGFIFSNWYMRWVRQAPGEGLEWVSSINSGGDDTDYADSVKGRFTISRDNAKGTLYLQMHSLKPEDTALYYCERGADRVRGQGTQVTVSS
V domain 2: QLQLVESGGGLVQAGGSLRLSCAASRSITFSHNVMGWYRQAPGKQRELVASIGSGGSTNYVDSVKGRATISRDNAKKTVYLQMNSLKPEDTAVYYCGVVVGVYRGSLGQGTQVTVSS
B10: DGL320 (bispecific antibody, V domains shown)
V domain 1: QVQLQESGGGLVQPGGSLRLSCAASGSIFSTKGLGWYRQAPGEQRELVAGISSAGWIFYTQSVKGRFTMSRDNAKNTVYLQMNSLKPEDTAVYYCNSAQSGVPLRSWGQGTQVTVAS
V domain 2: QLQLVESGGGLVQAGGSLRLSCAASRSITFSHNVMGWYRQAPGKQRELVASIGSGGSTNYVDSVKGRATISRDNAKKTVYLQMNSLKPEDTAVYYCGVVVGVYRGSLGQGTQVTVSS
B11: DGL322 (bispecific antibody, V domains shown)
V domain 1: QVQLVESGGGLVQAGGSLRLSCAASGRTFSSYTMGWFRQAPGKEREFVAAISWSAGRTYYADSVKGRFTISRDNAKNTVYLQMNSLKPEDTAVYFCAAEEAPDWAPIDCSGYGCLSLYDYWGQGTQVTVSS
V domain 2: QLQLVESGGGLVQAGGSLRLSCAASRSITFSHNVMGWYRQAPGKQRELVASIGSGGSTNYVDSVKGRATISRDNAKKTVYLQMNSLKPEDTAVYYCGVVVGVYRGSLGQGTQVTVSS
B12: DGL077 (bispecific antibody, V domains shown)
V domain 1: QVQLQESGGGLVQPGGSLRLSCAASGSIFSTKGLGWYRQAPGEQRELVAGISSAGWIFYTQSVKGRFTMSRDNAKNTVYLQMNSLKPEDTAVYYCNSAQSGVPLRSWGQGTQVTVAS
V domain 2: EVQLVESGGGVAQAGGSLRLSCAASITSFSLNTMGYYRQLPGKQRELVAVESSSGITNYADSVKGRFTISRDGAKNTVFLQMNSLTPEDTAVYYCGGKLFGRDFWGQGTQVTVSS
B13: DGL321 (bispecific antibody, V domains shown)
V domain 1: QVQLQESGGGLVQPGGSARLSCVASGIIFNDYHMGWYRQAPGKQRDLVAGITAGGSTTYADSVKGRFTISRDNAKHTVYLQMNNLSPEDTAVYYCNTFYNAILDWGKGTLVTVSS
V domain 2: QLQLVESGGGLVQAGGSLRLSCAASRSITFSHNVMGWYRQAPGKQRELVASIGSGGSTNYVDSVKGRATISRDNAKKTVYLQMNSLKPEDTAVYYCGVVVGVYRGSLGQGTQVTVSS

Assays:
[1] = biological target: T1, IL-18 receptor (IL-18Rα/IL-18Rβ) overexpressed on HEK-Blue IL-18 cells (Homo sapiens (Human), UniProt Q13478 19-541; O95256 20-599); test: cell-based or functional assay
T1 sequence 1: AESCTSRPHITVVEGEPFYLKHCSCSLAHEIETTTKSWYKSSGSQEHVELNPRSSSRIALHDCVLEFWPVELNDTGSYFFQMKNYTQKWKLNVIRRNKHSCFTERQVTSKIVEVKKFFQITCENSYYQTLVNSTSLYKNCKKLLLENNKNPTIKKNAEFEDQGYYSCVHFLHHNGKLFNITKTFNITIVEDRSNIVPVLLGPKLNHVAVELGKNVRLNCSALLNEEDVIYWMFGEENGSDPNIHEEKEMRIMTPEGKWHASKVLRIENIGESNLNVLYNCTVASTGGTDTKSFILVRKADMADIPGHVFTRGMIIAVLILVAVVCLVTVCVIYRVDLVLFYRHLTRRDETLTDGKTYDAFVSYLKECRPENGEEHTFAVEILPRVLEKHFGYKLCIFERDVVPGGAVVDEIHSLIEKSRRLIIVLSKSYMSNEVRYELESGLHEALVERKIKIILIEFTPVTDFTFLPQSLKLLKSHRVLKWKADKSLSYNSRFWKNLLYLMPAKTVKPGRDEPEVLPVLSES
T1 sequence 2: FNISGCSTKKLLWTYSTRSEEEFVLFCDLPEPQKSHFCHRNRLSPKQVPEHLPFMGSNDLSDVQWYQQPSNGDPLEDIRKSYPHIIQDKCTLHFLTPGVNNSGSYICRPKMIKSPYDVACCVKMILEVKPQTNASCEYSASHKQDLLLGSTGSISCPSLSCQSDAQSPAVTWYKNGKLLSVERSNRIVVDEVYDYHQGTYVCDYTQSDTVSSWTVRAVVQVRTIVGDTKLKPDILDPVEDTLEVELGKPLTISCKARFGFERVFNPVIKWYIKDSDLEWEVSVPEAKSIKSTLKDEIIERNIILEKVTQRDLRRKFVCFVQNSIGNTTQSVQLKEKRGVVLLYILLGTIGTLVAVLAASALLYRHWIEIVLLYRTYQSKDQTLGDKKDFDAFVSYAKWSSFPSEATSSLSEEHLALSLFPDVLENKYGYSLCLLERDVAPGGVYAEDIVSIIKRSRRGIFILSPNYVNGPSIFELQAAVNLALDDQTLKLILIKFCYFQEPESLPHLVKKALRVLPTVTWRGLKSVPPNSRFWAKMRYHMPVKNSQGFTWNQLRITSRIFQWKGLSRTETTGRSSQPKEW

[2] = biological target: T1, IL-18 receptor (IL-18Rα/IL-18Rβ) …; test: cell-based or functional assay; remark: listed apart in the source

Binder	HEK-Blue IL-18: Abs405 (Emax) [1] [Abs]	HEK-Blue IL-18: EC50 [1] [pM]	HEK-Blue IL-18: Abs 405 [2] [Abs]	HEK-Blue IL-18: Fold over Background [2] [fold]
B1	0.49	6.6	–	–
B2	0.6	28	–	–
B3	0.6	14	–	–
B4	0.81	28	–	–
B5	0.47	6.3	–	–
B6	0.36	18	–	–
B7	0.88	3.4	–	–
B8	1.03	4.1	–	–
B9	–	–	0.42	1.8
B10	–	–	2.36	10.3
B11	–	–	0.74	3.2
B12	0.6	5.4	–	–
B13	–	–	0.38	1.7
